# Data taken from patent US20080199851A1.
# B1: 4D1 single chain antibody (scFv)
# scFv: QVQLQQPGAELVKPGASVNLSCKASGYTFTSYWMHWVKQRPGQGLEWIGEIDPSDSFTTYNQNFKDRATLTVDKSSSTAYMQLRSLTSEDSAVYYCARGGPGDFRYAMDYWGQGTSVTVSSGGGGSDILMTQSPSSMSVSLGDTVSITCHASQGISSNIGWLQQKPGKSFKGLIYHGTNLEDGVPSRFSGSGSGADYSLTISSLESEDFADYYCVQYVQFPYTFGGGTKLEIKRA
# B2: 10F7 single chain antibody (scFv)
# scFv: QVQLQQPGAELVKPGASVKLSCKASGYTFTSYWMHWVKQRPGQGLEWIGEIDPSDSYTNYNQKFKGKATLTVDKSSSTAYMQLSSLTSEDSAVYYCARGGTGDFHYAMDYWGQGTSVTVSSGGGGSDILMTQSPSSMSVSLGDTVSITCHASQGISSNIGWLQQKPGKSFKGLIYHGTNLEDGVPSRFSGSGSGADYSLTISSLESEDFADYYCVQYVQFPYTFGGGTKLEIKR
# B3: 8H5 single chain antibody (scFv, V domains shown)
# VH: QVQLQQSGAELMKPGASVKISCKATGYTFSNYWIEWIKQRPGHGLEWIGEILPGSDRTNYNGKFKGKATFTADTSSNTAHMQLSSLTSEDSAVYYCANRYDGYYFGLDYWGQGTSVAVSS
# VL: EIVLTQSPAIMSASLGEKVTMSCRASSSVNFVYWYQQRSDASPKLLIYYSSNLAPGVPPRFSGSGSGNSYSLTISGLEGEDAATYYCQHFTSSPYTFGGGTNLEIKR
# Experiments:
# [1] = target: B/Shanghai/2002 (Influenza B virus B/Shanghai/2002); experiment: lateral-flow sandwich, B line: M2110171 striped + 2/3-Eu
# [2] = target: A/Taiwan/1/86 (H1N1) (Influenza A virus A/Taiwan/1/86 (H1N1)); experiment: as above
# [3] = target: Bar-headed GS/QH/15/2005 (H5N1) (Influenza A virus Bar-headed GS/QH/15/2005 (H5N1)); experiment: as above
# [4] = target: DK/VNM/568/2005 (H5N1) (Influenza A virus DK/VNM/568/2005 (H5N1)); experiment: as above
# [5] = target: A/Beijing/95(H1N1) (Influenza A virus A/Beijing/95 (H1N1)); experiment: as above
# [6] = target: B/Shanghai/2002 (Influenza B virus B/Shanghai/2002); experiment: lateral-flow sandwich, A line: 7304 striped + M4090913-Eu
# [7] = target: A/Taiwan/1/86 (H1N1) (Influenza A virus A/Taiwan/1/86 (H1N1)); experiment: as above
# [8] = target: Bar-headed GS/QH/15/2005 (H5N1) (Influenza A virus Bar-headed GS/QH/15/2005 (H5N1)); experiment: as above
# [9] = target: DK/VNM/568/2005 (H5N1) (Influenza A virus DK/VNM/568/2005 (H5N1)); experiment: as above
# [10] = target: A/Beijing/95(H1N1) (Influenza A virus A/Beijing/95 (H1N1)); experiment: as above
# [11] = target: H5N1 virus strain A3; experiment: cell-based or functional assay
# [12] = target: H5N1 virus strain D2; experiment: cell-based or functional assay
# [13] = target: H5N1 virus strain B5; experiment: cell-based or functional assay
# [14] = target: H5N1 virus strain A7; experiment: cell-based or functional assay
# [15] = target: H5N1 virus strain B1; experiment: cell-based or functional assay
# [16] = target: H5N1 virus strain A5; experiment: cell-based or functional assay
# [17] = target: H5N1 virus strain B6; experiment: cell-based or functional assay
# [18] = target: H5N1 virus strain A8; experiment: cell-based or functional assay
# [19] = target: H5N1 virus strain B8; experiment: cell-based or functional assay
# [20] = target: H5N1 virus strain E2; experiment: cell-based or functional assay
# [21] = target: H5N1 virus strain A6; experiment: cell-based or functional assay
# [22] = target: H5N1 virus strain C3; experiment: cell-based or functional assay
# [23] = target: H5N1 virus strain B2; experiment: cell-based or functional assay
# [24] = target: H5N1 virus strain E1; experiment: cell-based or functional assay
# [25] = target: H5N1 virus strain D1; experiment: cell-based or functional assay
# [26] = target: H5N1 virus strain B4; experiment: cell-based or functional assay
# [27] = target: H5N1 virus strain F3; experiment: cell-based or functional assay
# [28] = target: H5N1 virus strain A2; experiment: cell-based or functional assay
# [29] = target: H5N1 virus strain B3; experiment: cell-based or functional assay
# [30] = target: H5N1 virus strain G1; experiment: cell-based or functional assay
# [31] = target: H5N1 virus strain A1; experiment: cell-based or functional assay
# [32] = target: H5N1 virus strain H2; experiment: cell-based or functional assay
# [33] = target: H5N1 virus strain F2; experiment: cell-based or functional assay
# [34] = target: H5N1 virus strain C2; experiment: cell-based or functional assay
# [35] = target: H5N1 virus strain H1; experiment: cell-based or functional assay
# [36] = target: H5N1 virus strain B7; experiment: cell-based or functional assay
# [37] = target: H5N1 virus DK/IDN/MS/04 (Influenza A virus DK/IDN/MS/04); experiment: cell-based or functional assay
# [38] = target: H5N1 virus CP Heron/HK/18/05 (Influenza A virus CP Heron/HK/18/05); experiment: cell-based or functional assay
# [39] = target: H5N1 virus Oriental Magpie Robin/HK/366/2006 (Influenza A virus Oriental Magpie Robin/HK/366/2006); experiment: cell-based or functional assay
# [40] = target: Bar-headed GS/QH/15/2005 (H5N1) (Influenza A virus Bar-headed GS/QH/15/2005 (H5N1)); experiment: cell-based or functional assay
# [41] = target: H5N1 virus CK/IDN/2A/04 (Influenza A virus CK/IDN/2A/04); experiment: cell-based or functional assay
# [42] = target: H5N1 virus CK/HK/213/03 (Influenza A virus CK/HK/213/03); experiment: cell-based or functional assay
Molecule,HI titer n (titer = 2^n) (n-th power of 2) [11],HI titer n (titer = 2^n) (n-th power of 2) [12],HI titer n (titer = 2^n) (n-th power of 2) [13],HI titer n (titer = 2^n) (n-th power of 2) [14],HI titer n (titer = 2^n) (n-th power of 2) [15],HI titer n (titer = 2^n) (n-th power of 2) [16],HI titer n (titer = 2^n) (n-th power of 2) [17],HI titer n (titer = 2^n) (n-th power of 2) [18],HI titer n (titer = 2^n) (n-th power of 2) [19],HI titer n (titer = 2^n) (n-th power of 2) [20],HI titer n (titer = 2^n) (n-th power of 2) [21],HI titer n (titer = 2^n) (n-th power of 2) [22],HI titer n (titer = 2^n) (n-th power of 2) [23],HI titer n (titer = 2^n) (n-th power of 2) [24],HI titer n (titer = 2^n) (n-th power of 2) [25],HI titer n (titer = 2^n) (n-th power of 2) [26],HI titer n (titer = 2^n) (n-th power of 2) [27],HI titer n (titer = 2^n) (n-th power of 2) [28],HI titer n (titer = 2^n) (n-th power of 2) [29],HI titer n (titer = 2^n) (n-th power of 2) [30],also measured
Anti-Flu B nucleoprotein M2110171 (Fitzgerald) (antibody),,,,,,,,,,,,,,,,,,,,,Signal/noise of test line [1]: 376; Signal/noise of test line [2]: 0.4; Signal/noise of test line [3]: 0.6; Signal/noise of test line [4]: 1; Signal/noise of test line [5]: 0.5
anti-Flu A Medix 7304 antibody,,,,,,,,,,,,,,,,,,,,,Signal/noise of test line [6]: 3.9; Signal/noise of test line [7]: 493; Signal/noise of test line [8]: 246; Signal/noise of test line [9]: 607; Signal/noise of test line [10]: 896
B1,> 8,7.5,0,6,> 8,> 8,> 8,> 8,> 8,1,7,> 8,0,1,> 8,> 8,3,> 8,> 8,3.5,HI titer n (titer = 2^n) (n-th power of 2) [31]: > 8; HI titer n (titer = 2^n) (n-th power of 2) [32]: 4; HI titer n (titer = 2^n) (n-th power of 2) [33]: 5; HI titer n (titer = 2^n) (n-th power of 2) [34]: > 8; HI titer n (titer = 2^n) (n-th power of 2) [35]: 6; HI titer n (titer = 2^n) (n-th power of 2) [36]: > 8
B2,> 8,2.5,0,6.5,7,> 8,7,6,7,0,7.5,1,0,0,2.5,> 8,0,> 8,> 8,0,neutralization: dilution of 10F7 scFv (fold dilution) [37]: 16; neutralization: dilution of 10F7 scFv (fold dilution) [38]: 8; neutralization: dilution of 10F7 scFv (fold dilution) [39]: < 1; neutralization: dilution of 10F7 scFv (fold dilution) [40]: 16; neutralization: dilution of 10F7 scFv (fold dilution) [41]: 32; HI titer n (titer = 2^n) (n-th power of 2) [31]: > 8; HI titer n (titer = 2^n) (n-th power of 2) [32]: 0; HI titer n (titer = 2^n) (n-th power of 2) [33]: 0; HI titer n (titer = 2^n) (n-th power of 2) [34]: 2; HI titer n (titer = 2^n) (n-th power of 2) [35]: < 1; HI titer n (titer = 2^n) (n-th power of 2) [36]: 7; neutralization: dilution of 10F7 scFv (fold dilution) [42]: < 1
B3,3.5,2,0,3,4,4,3.5,2.5,3,0,3,0,0,0,2.5,5,0,4.5,5,0,HI titer n (titer = 2^n) (n-th power of 2) [31]: 3.5; HI titer n (titer = 2^n) (n-th power of 2) [32]: 0; HI titer n (titer = 2^n) (n-th power of 2) [33]: 0; HI titer n (titer = 2^n) (n-th power of 2) [34]: 1; HI titer n (titer = 2^n) (n-th power of 2) [35]: 0; HI titer n (titer = 2^n) (n-th power of 2) [36]: 4
